40 sequences from the nanobody polyreactivity screen of Harvey et al. (2022) can be followed below.

A short description of the data set: yeast display, Sf9 membrane polyspecificity reagent, FACS + sequencing; frameworks hold sequencing errors. In outline: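 A nanobody's polyreactivity label depends on the gate it was sorted from. Yeast display cells were stained with 10% biotinylated, detergent-solubilized Sf9 membrane reagent for 1 hour at 4 °C, enriched on streptavidin microbeads and sorted by FACS. The low and high (top ~1%) gates were set on anti-HA fluorescence for expression and streptavidin fluorescence for reagent binding.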
For “QVQLVESGGGLVQAGGSLRLSCAASGSTFGPYDMGWYRQAPGQERDLVAAITRSGGRTYYADSVKGRFTFSRDNAKNTVYLQKNSLKPEDTAVYYCAAPPSEATSQRYKYNYWGQGTQVTVSS”, the “polyreactivity (PSR sort gate)” value was “high polyreactivity”. Consider “QVQLVESGGGLVQAGGSLRLSCAASGRTFSRYAMGWYRRAPGKERELVAAITKSGGSTYYADSVKGRFTISRDNAKITVYLQMNSLKPEDTAVYYCAVRYGGRFFRKYDYWGQGTQVTVSS”, for which the “polyreactivity (PSR sort gate)” value was “high polyreactivity”. The same measure for “QVQLVESGGGLVQAGGSLRLSCAASGRIFYFNTMGWSRQAPGKERELVAAISKNGGSTYYADSVKGRFTISRDTAKNTVYLQMNSLKPEDTAVYYCAKTRRLSPYDYWGQGTQVTVSS”: “high polyreactivity”; for “QVQLQDSGGGLVQAGGSLRLSCAASGSISIYGYMGWYRQAPGNERELVAAITAGGSTYYADSVKGRFTISRDNAKNTVYLLMKSLKPEDTAVYYCAPYEQRVYDLHYWGQGTQVTVSS”: “high polyreactivity”; for “QVQLVESGGGLVQAGGSLRLSCAASGSIFTKYAMGWYRQAPGKERELVAGISRTTGSTYYADSVKGRFTISRDNAKNTVYLQMNSLKPEDTAVYYCAALSYRRGISRDGGYDYWGQGTQVTVSS”: “high polyreactivity”. “QVQLVESGGRLVQAGGSLRLSCAASGSIFQYYARGWYRQAPGKVREFVSAITSDGSSTYYADSVKGRFTISRDNAKNTVYLQMKSLKPEDTAVYYCAAGWVGYRRPSMYYWGQVTQVTVSS”: the “polyreactivity (PSR sort gate)” value is recorded as “high polyreactivity”. The same measure for “QVQLVESGGGLVQAGGSLRLTCAASGFTYTINGMGWYRQAPGKERELVAAINWRGGSTYYADSVKGRFTISRDNAKNTVYLQMNSLKPEDTAVYYCYAVAYIYSYAYPPYWGREHLNYWGQGTQVTVSS”: “low polyreactivity”; for “QVQLVESGGGLDQAGGSLRLICAASGITIEYYAMAWYRTAPGKERELVAAISSGGGSTYYADSVKGRFTISRDNAKNSVYLQMISLKPEDTAVYYCAADIVSSPSSYVPPGDYWGQGTQVTVSS”: “low polyreactivity”. Then “QVPRVESGGGLVQAGGSLRLSCAASGFTFRFYDMGWYRQARGNERELVAAISWSGTSTYYADSVKGRFTISRDNAKNTVYLQMNSLKPEETAVYYCAADIIGYEFDYWGQGTQVTVSS”, with “high polyreactivity”; and “QFHLVESGGGLVQAGGSLRLSCAASGSIFNEYAMGWYRQAPGKERELVAAITNISGRKYYADSVKGRFTISRDNAKNTVYLQMNSLKPEDTAVYYCNARRTYTRPYIHSVYNYYYWGQGTEVTVSS”, with “high polyreactivity”; and “QVQLVESGGGLLQAGGSLSLSCAASGRTFVPYTMGWYRPAPGKERELVAAISWSDGTTYYADSVKGRFTISRDNAKNTVYLQMNSLKPEDTAVYYCNDDVYLFNYFGGWYYAGYDYWGQGTQVTVSS”, with “high polyreactivity”. Then “QVQLVESGGGLVQAGGSLRLSCAASGRIFYHYAMGWYRQAPGKERELVAAITWSGVSTYYADSVKGRFTISRDNAKNTVYLQMNSLKPDDTAVYYCATSSRYGVRRYSRGSWGQGSQVTVSS”, with “high polyreactivity”. As to “QVQLVESGGGLVQAGGSLRLSCAASGSTFYTNAMGWYRQAPGKERELVAAISGSGGSTYYADSVKGRFTISRDNAMNTVYLQMNSLKPEDTAVYYCADRSRYYDTRFDYWGQGTQVTVSS”, the “polyreactivity (PSR sort gate)” value is listed as “low polyreactivity”. The same measure for “QVQLVESGGGLVQAGGSLRLSCAASGFTFRPYVMGCYRQAPGKERELVAGISTGGSTYYADSVKGRFTISRDNAKNTVYLQMNSLKPEDTAVYYCAKRGKQYRKMNYWGQGTQVTVSS”: “high polyreactivity”. Then “QVQLVESGGGLVQAGGSLRLSCAASGRIFVRNAMGWYRQAPGKERELVAAISRSGGSTSYADSVKGRFTISRDNAKNTVYLQMNSLKPEDTAVYYCAARYARYQYQYDYWGQGTQVTVSS”, with “high polyreactivity”. Then “QVQLVESGGGLVQAGGSLRLSCAASGIIFDYNAMGWYRQAPGKERELVAAISGRSGRTYYADSVKGRFTISRDNAKNTVYLQMNSLKPEDTAVYYCNALRLTRDPYDYWGQGTQVTVSS”, with “high polyreactivity”; and “QVQLVESGGGLVQAGGSLRLSCAASGYTFKRYAMGWYRQPPGKERELVAAITSRGGNTYYADSVKGRFTISRDNAKNTVYLQMNSLKPEDTAVYYCAVGGWSAYHLSQMYYWGQGTQVTVSS”, with “high polyreactivity”; and “QVQLVESGGGLVQAGGSLRLSCAASGFTFYYYAMGWYRQAPGKERELVAAISRSGGSTYYADSVKGRFTISRDNAKNTVYLQMNSLKPEDTAVYYCAARRLVGAERPGYDYWGQGTQVTVSS”, with “high polyreactivity”. Take “QVQLVESGGGLVQAGGSLRLSCAASGSTFWGNAMGWYRPAPGKERELVAAISNGGSTNYADSVKGRFTISRDNAKNTVNLQMNSLKPEDTAVYYCAADGHTSNGVSLHGYWGQGTQVTVSS”: the “polyreactivity (PSR sort gate)” value is “low polyreactivity”. The same measure for “QVQLVESGGGLVQAGGSLRLSCAASGRIFRGYAMGWYRQAPGKEREFVDAITKNGGSTYYADSVKGRFTISRDNAKNTVYLQMNSLKPEDTAVYYCAVRAWDPYTGKSEYWGQGTQVTVSS”: “low polyreactivity”; for “QVQLVESGGGLVQAGGSLRLSCAASGSISVLNAMGWYRQAPGKERELVAAISRSGTRTYYADSVKGRFTLSRDNAKNTVYLQMNSLKPEDTAVYYCNALHRARLFGHYPYESWGQGTQVTVSS”: “high polyreactivity”. Then “HVQLVESGGGLVQAGGSLRLSSTASGSTFGYYAMGWNRQAPGKERELVAAISGIGGSTYYADSVKGRFTISRDNAKNTVYLQMNSLKPEDTAVYFCAADLYYVTWDYNYWGQGTQVTVSS”, with “low polyreactivity”; and “QVQLVESGGGLVQAGGSLRLSCAASGSTFNYYAMGWYRQAPGKERELVAAIDWSGGSTYYADSVKGRFTISRDNAKNTVYLQMNSLKPEDTAVYYCAARTYDYSYRSYDYWGQGTQVTVSS”, with “low polyreactivity”; and “QVQLVESGGGLVQAGGSLRLSCAASGSTFYPYAMGWYRQAPGKERELVAAISSGGSTSYADSVKGRFTISRDNAKNTFYLQMNSLKPEDTAVYYCNASSPGAVPVYDYDYWGQGTQVTVSS”, with “low polyreactivity”. The same measure for “QVQLVESGGGLVQAGGSLRLSCAASGRTLSVNAMGWYRQAPGKERELVAAITWGGGSTYYADSVKGRFTISRDNAKNTVYLQMNSLKPEDTAVYYCNADPGWTELEYDYWGQGTQVTVSS”: “low polyreactivity”.

For “QVQLVESGGGLVQAGGSLRLSCAASVSTFFRYAKRWYRQAPGKERELVAAISKRGGSTSYADSVKGRFTISRDNAKNTVYLQMNSLKPEDTAVYYCATVYWLFARYDYWGQGTQVTVSS”, the “polyreactivity (PSR sort gate)” value is “high polyreactivity”. Then “QVQLVESGGGLVQAGGSLRLSCAASGTFVTYMGWYRQSPGKEREMVAAIRNGGSTNYADSVKGRFTISRDNAKNTVYLQMNSLKPEDTAVYYCAARVTYSRGYRGGSRTKYDYWGQGTQVTVSS”, with “low polyreactivity”; and “QVQLVESGGGLVQAGGSLRLSSAASGRIFRYYTMGWYRQAPGKERELVATITSDGRTNYADSVNGRFTISRDNAKNSVYLQMNSLKPEDTAVYYCAARYVMGGQGTSRRVGGGYWGQGTQVTVSS”, with “high polyreactivity”. On to “QVQLVESGGGLVQAGGSLRLSCAASGFTFGRYAMGWYIQAPGKERELVAAINWSGTSTYYADSVKGRFTISRDNSKNTVYLQLNILKPEDTAVYYCAVRESGYHTTLYYWGQGTQVTVSS”, for which the “polyreactivity (PSR sort gate)” value is given as “high polyreactivity”. Then “QVQLVESGGGLVQAGGSLRLSCAASGITFRNYARGWYRQAPGKERELVAAITTSGSRTYYEDSVKGRFTISRDNAKKTVYLQMNSLKPEDTAVYYCAAQQVPWQYYDFEYWGQGTQVTVSS”, with “high polyreactivity”; and “QVQLVESGGGLVQAGGSLRLSCAASGRTFDLNDMGWYRQAPGKERELVAGINSGGSTKYADSVKGRFTISRDNAKNTVSLQMNSLKPEDTAVYYCATRWPGGSRWPFYLTYDYWGQGTQVTVSS”, with “low polyreactivity”; and “QVQLVESGGGLVQAGGSLRLSCAASGLILYTYAMGWYRQAPGKERELVAAINSGGRTYYADSVKGRFTISRDNAKNTVYLQMNSLKPEDTAVYYCAADYGSRVRGFNYWGQGTQVTVSS”, with “low polyreactivity”. Then “QVQLVESGGGLVQAGGSLRLSCAASGRIFHYNAMGWYRQAPRKERELVAAISTGGSTNYADSVKGRFTISRDNAKNTVYLQMNSLKPEDTAVYYCAADHPVTYPTSKFDYWGQGTQVTVSS”, with “low polyreactivity”. With “QVQLVESGGGLVQAGGSLRLSCAASGIILYVNAMGWYRQAPGKERELVAAISWGGGSTYYADSVKGRFTISRDNAKNTVYLQMNSLKPEDTAVYYCAAEFWSGYPTYTYDYWGQGTQVTVSS”, the “polyreactivity (PSR sort gate)” value is given as “low polyreactivity”. The same measure for “QVQLVESGGGLVQAGGSLRLSCAASGSTFGSYAMVWYRQAPGKERELVADISSRGASTYYADSVKGRFTISRDNAKNTVYLQMNRLKPEDTAVYYCARDVYIWYGYGYFPEYEYWGQGTQVTVSS”: “low polyreactivity”; for “QVQLVESGGGLVQAGGSLRLSCAASGRIFPSYAMGWYRQAPGKERELVATISSGGRTYYADSVKGRFTISRDNAKNTVYLQMTSLKPEDTAVYYCARRSLYHVRTQIYEYWGQGTQVTVSS”: “low polyreactivity”; for “QVQLLDSGGGLVQAGGSLRLSCAASGLILVPNTMGWYRQAPGKERELVADIRSGGTTNYADSVKGRFTISRDNAKNTVYLVMNSLKPEDTAVSYCAKEKYDYVGDYEVDYWGHGTQVTVSS”: “low polyreactivity”. Then “QVQLVESGGGLVQAGGSLRLSCAAYGRIFSYYAMGWYRQAPGKERELVAASSGNGGSTYYADSVKGRFTISRDHAKNTVYLQMNSLKPEDTAVYYCAAVWWSSDWASLYPYSYDHWGQVTQVTVSS”, with “low polyreactivity”. The same measure for “QVQLVESGGGLVQAGGSLRLSCAASGRTFVWNVMGWYRQAPGKEREFVAAISGGSTYYADSVKGRFTISRDNAMNTVYLEMNSLKPEDTAVYYCADASKLHPRYEYWGQGTQVTVSS”: “low polyreactivity”; for “QVQLVESGGGLVQAGGSLTLICAASGRTLYLNAMGWYRQAPRKERELVAISSGGSTYYADSVKGRFTISRDNAKNTVYLQMNSLKPEVTAVYYCNADEHYHFCYVFWYAYDYWGQGTQVTVSS”: “low polyreactivity”.
